In the supplement of paper PMC12764529:
± gives the half width of the 95% confidence interval.

Experiments:
[1] = folding stability dG unfold from chymotrypsin proteolysis; higher = more stable
Procedure, shortened: (§1)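 Unfolding free energy was derived, per protease or combined, against a sequence-predicted unfolded-state K50 and a shared folded-state K50, starting from K50 inferred by Bayesian fitting of sequencing counts. Digestion with trypsin and chymotrypsin was carried out on designed mini-proteins under 80 residues without cysteine in a PA-tagged cDNA display construct. Only designs with AlphaFold2 dimer inter-PAE above 15 were kept.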

[2] = folding stability dG unfold (combined trypsin and chymotrypsin); higher = more stable
Procedure, shortened: as §1

[3] = folding stability dG unfold from trypsin proteolysis; higher = more stable
Procedure, shortened: as §1

Sequence	folding stability dG unfold [1] [kcal/mol]	folding stability dG unfold [2] [kcal/mol]	folding stability dG unfold [3] [kcal/mol]
SAGGSAGGSGMTEVVAEKKYPNEVILVTKEPDSYYIVKVTLKDGKVVEKENLGKISPDDPSILSAGGSAGGS [r12_154_JUSTAS]	-0.458 ± 0.39	-0.0617 ± 0.22	-0.0464 ± 0.065
SAGVVEELLKEFPDVEKVTSSSYPGPKVSQYVIYFPTPSGKKVTIKITVTQPRLPSNSTTSELSIELNDSAG [r5_398_JUSTAS]	2.25 ± 0.12	2.08 ± 0.38	2.11 ± 0.12
SAGGSAGGKKPPKIKVIYIKADSPEALKKLKIKAKPGDTILIYVDGKLYRLTVIDGKIKIEELPSAGGSAGG [r6_550_TrROS_Hall]	3.73 ± 0.065	3.35 ± 0.14	2.12 ± 0.089
SAGGSAGGSAGKAKIVKIEKVKNKNGETYYIIKLEGKKEIFVIKDKNGKKKKIPLKELKPSAGGSAGGSAGG [r17_286_TrROS_Hall]	2.37 ± 0.026	2.11 ± 0.048	1.42 ± 0.043
SAGGKTIWIPMPPGDPEKFAKNIADEILEEAQKQGENVDVKITIQYPDGQYMRITIDGNGKIDKIVPWSAGG [r13_965_TrROS]	0.652 ± 0.31	0.636 ± 0.31	0.333 ± 0.2
SAGGSAGGSAGGKMRLYRFNLKTNKIEEVEAEPGEVIKITFPGKEIVLVVKDGKIELIPSAGGSAGGSAGGS [r10_817_TrROS_Hall]	1.2 ± 0.22	0.884 ± 0.21	0.464 ± 0.13
SAGGKLQLLLRSPDGNVEVALSFEKLPDGKVKVTATVRNKKTGRTYRLEVTFDLKTKKIEIKLEELPSAGGS [r16_684_TrROS_Hall]	6.24 ± 0.14	> 6	4.78 ± 0.22
SAGGPNIELEFETYRDPDGMLVIKFHIRIKFGNKPVYIFVEGVIPPDGEAQIEDAYIFDADNGEWIPISAGG [r13_932_TrROS]	4.6 ± 0.15	4.26 ± 0.29	2.9 ± 0.25
SGMIDVDLDYTTEDGRPVKVSASYDPATGVLTFKVPDNDDVIIATVTEVTTEDESVTVTLNVTRYSKELLSA [r9_587_JUSTAS]	2.54 ± 0.066	2.09 ± 0.14	0.957 ± 0.072
SAGGKTIMHMYMNPNGWFIRAKIKLDPDGKWKITDVEIYPMEMKYEDPNGKPREMPMFMIKIRIKPDSAGGS [r8_270_TrROS]	4.26 ± 0.046	3.78 ± 0.092	3.03 ± 0.084
SAPNYVLVIKIKSTNTPYYIPVPEDVEIVVKKNKNGEITAVVKVKDPETGEYFVITFSGDAKIDKIEPVPSA [r9_467_TrMRF]	2.93 ± 0.082	2.63 ± 0.19	2.21 ± 0.1
SAGGSAGGSGMMFELAFREIKYSPNDSVTIKAELPDGSSITIPTKKGEIKFKLPENGYVKVLGSAGGSAGGS [r12_746_JUSTAS]	-0.514 ± 0.55	-0.262 ± 0.2	-0.281 ± 0.34
SAGPTIMIPMPPKESLEEAVEKAIEWIREFFPDNLKPGKKIKIFVHVWDPDNGKQYWVTIEIPIPKGELSAG [r5_916_TrROS]	3.62 ± 0.057	3.19 ± 0.25	2.48 ± 0.22
SAGGFEFKAVKLKKNEEKEGELGGAKVRYVSDNKGPVYQVVEFGPEYRALAKVEGDKVELVAVEEGNPSAGG [r13_92_TrMRF]	0.00343 ± 0.21	-0.21 ± 0.16	-1.02 ± 0.66
SAGGSAGGSGGMMKVIVSVSPGEEAVEKVNKLVNETDLPPIEVIIIPHSPDDPIVVAILLLLLSAGGSAGGS [r12_649_JUSTAS]	3.12 ± 0.032	2.73 ± 0.057	2.33 ± 0.053
SAGGSAGGPPPYYMVEIEIERRNPKNGKKQKFPVTVIMPPKEAEKIKDELEEWGYEIKVDVHPISAGGSAGG [r6_97_TrROS]	0.393 ± 0.066	0.74 ± 0.18	0.856 ± 0.15
SAGVTLKLPFVLPGGLGVDEIEVRSLPGGRVEARLRLKGDPRYYVVARFYVLPGGRLVITDVRVRREDESAG [r14_705_TrMRF]	3.22 ± 0.031	3.54 ± 0.082	3.75 ± 0.095
MNIPLKEILDKAKAEGKPVVFPDGTKTLSFEPGGKATIEKPVEVPGKPGVPLETKTYTIDINEDGSVTVNDS [r1_284_JUSTAS]	-0.279 ± 0.15	-0.373 ± 0.095	-0.875 ± 0.17
SAGGSAGGSAGGSMTVTVTLKDGSTRTFAVPADAPLTLEQLEAAGYPAADIAEVTVTAESAGGSAGGSAGGS [r10_565_JUSTAS]	3.292 ± 0.021	2.96 ± 0.038	1.88 ± 0.049
SAGGSAGGSAMLVIRVVTEDGEEREIEIPEGEELTLEEILAALRTPDGREVPIERVEIFPASAGGSAGGSAG [r3_465_TrROS_Hall]	1.75 ± 0.029	1.84 ± 0.11	2.04 ± 0.046
SAGLDIKKIEFDPNGYLRIEVVYDKNISIKEIIEEIKKLTGATVEKVEVKPTKNGVKAIFILKIDKNLKSAG [r5_774_TrMRF]	3.052 ± 0.021	2.6 ± 0.11	1.12 ± 0.042

Sequence	folding stability dG unfold [1] [kcal/mol]	folding stability dG unfold [2] [kcal/mol]	folding stability dG unfold [3] [kcal/mol]
SAGGMVIVVKTKEEAKKALEELLKKLFPDLKIKKIEIKEVEVEVKKKDGKKVKKKKFIVVKIEIEKESAGGS [r16_267_TrROS_Hall]	3.38 ± 0.13	3.05 ± 0.13	2.61 ± 0.1
MKIKEVKVFPLPGENTIVILVTGEFDSFYIPETGKPIPSSAKITLIEVIKVPEDSDEAEVESSLLILPDAES [r1_147_TrMRF]	1.46 ± 0.067	1.4 ± 0.16	1.08 ± 0.067
SAGGEEVVVERPPAPPPITVTIEYDEETNTVTVTVTLPNGETLTITVEAPSLEEAEAAARELLEALSSAGGS [r16_319_TrROS_Hall]	2.96 ± 0.37	2.93 ± 0.31	2.66 ± 0.28
SAGGSAGGIEVKIEGEIKPVKVTVSFSTANGDGNPKEYPVEKTYLVVDIKIEVNSPEAAKKINISAGGSAGG [r6_149_TrMRF]	3 ± 0.13	2.51 ± 0.14	1.37 ± 0.058
SAGGKPKEIVIEVELEVVEVNGEKYLVLKAKIIDKETNEVYEVTAVFNLKTGKLVGIEVKKLTVEELKSAGG [r13_772_TrROS_Hall]	4.9 ± 0.23	4.66 ± 0.37	3.16 ± 0.25
SAGGSMALVEIERPGGEGALRTVDTSNPAAVKAFVDAVPEDEPVRVYTDDPAVVELFKEAGFDEVLLESAGG [r13_476_JUSTAS]	0.775 ± 0.087	0.55 ± 0.096	-0.0819 ± 0.053
SAGGPMPPGQKRTVTIDLEYNPENGGYRVRAYSPGGKPIEEFPFPRDNLEEFAEEFANKGVDYVEIEPSAGG [r13_765_TrROS]	0.528 ± 0.18	0.325 ± 0.16	-0.217 ± 0.19
SAGNFNIKEQKETDGRRVIEIPMPGSGHEITIVFERNPDGPRKININMNGPMADYLREALPGIDRVEIISAG [r5_933_TrROS]	0.275 ± 0.26	0.213 ± 0.22	0.187 ± 0.31
SAGGSEVKIVKIESVEIEEENGFLRIKVRATLKFYDKETGELVEEKEVELEVTLKNGKKLTFKIKASAGGSA [r2_271_TrROS_Hall]	3.12 ± 0.086	3.12 ± 0.58	3 ± 0.23
SAGGSAGGSDPPVVTVEVKEETLPNGEKIYIVTVTREDGTTKTLKFPASTSEEEIKEKVEKLLSAGGSAGGS [r12_1019_JUSTAS]	4.08 ± 0.18	4.17 ± 0.35	3.64 ± 0.3
SAGGSAPPKRRERIIQIPIKMKPGQTADEMVDNIADWIMDLLPPDMRIEIEVEYHPENGWIMVKIESAGGSA [r15_739_TrROS]	2.09 ± 0.084	1.63 ± 0.3	1.21 ± 0.089
SAGGSAGGSAKEIEVRVEKDEETGKYRVTIRVDGKEIEIEVDVPKTLEEAERKAKELLKELSAGGSAGGSAG [r3_104_TrROS_Hall]	2.77 ± 0.035	2.66 ± 0.066	2.53 ± 0.082
SAGGSAGGSAGMIVAKVVEYDPETGEITIEVDGKKITLPLKNMKIKEVNGYLVIEFKEDDSAGGSAGGSAGG [r17_403_TrROS_Hall]	3.43 ± 0.082	3.25 ± 0.072	2.89 ± 0.11
SAGGSAGGSAGMRTVEVKVVFKEGDKEFEKTITITLSPDDPSLEERAKEIAEKGIVVEIIRSAGGSAGGSAG [r3_30_JUSTAS]	1.99 ± 0.12	1.75 ± 0.15	1.62 ± 0.055
SAGGSAMKITITVEKKEDGTYRVTIEIDGKKIEIEMSVEDLKKKLEELAKELFPDKPIKVEVKPVPSAGGSA [r15_925_TrROS_Hall]	4.13 ± 0.36	3.83 ± 0.2	2.87 ± 0.13
SAGGSAGGPVVISVPALVKLAKELGLKLVFFPETKTVILEHPDSFLIATIDSKGNVSIAPALPESAGGSAGG [r6_155_TrMRF]	2.59 ± 0.049	2.64 ± 0.091	2.69 ± 0.09
SAGGKKPKVKKVKVKLTLVDPETGEEVEVEAELYELPDGYVVLTVRNKKTGKTYRFVFKDGKLYLEPVSAGG [r13_117_TrROS_Hall]	4.46 ± 0.11	4.12 ± 0.35	2.88 ± 0.1
SAGGSAGGSAGGPLKVEVIGSIEGDDRVYVLTRVPGVGGLFVAEYEKPSGKILSVSPVPLSAGGSAGGSAGG [r7_154_TrMRF]	1.3 ± 0.15	1.07 ± 0.081	0.743 ± 0.065
SAGGSAGGSPPNKEVYIRIKIEYDGPNGQPIMEFWIPADEITPSFIEELMNRGGIKVDIELIPSAGGSAGGS [r12_398_TrROS]	2.99 ± 0.032	2.84 ± 0.1	2.66 ± 0.085
SMPAEMSPEEVREAVRALVEEALAANPGEPVTVPIEEIRAALPGYSPEVLREVLGLTEEEIAAGPVTLRLSA [r9_525_JUSTAS]	-0.45 ± 0.35	0.483 ± 0.12	0.885 ± 0.042
SAGGSAGGSAGAFVGYRDEGGRYWLRTPEGELELDSEEDALEWADFLRANGIPLLSEPRPSAGGSAGGSAGG [r17_35_TrMRF]	1.59 ± 0.11	1.43 ± 0.073	1.08 ± 0.032
